Molecular target: Bluetongue virus serotype 1 (BTV-1) outer capsid protein VP2
Assay: Co-IP with anti-NS3 antibody, densitometry of VP2 band
Settings: parent: est. 1.0; read off a plot

Substance	ratio to parent (relative fold change)
Bluetongue virus serotype 1 (BTV-1) non-structural glycoprotein NS3, wild type K196A; K197A; E198A	0.56
Bluetongue virus serotype 1 (BTV-1) non-structural glycoprotein NS3, wild type N150A	0.61
